The values that follow are results of earlier work, collected in PMC10060530.

The target in data set [1] is NaV1.7 (Homo sapiens) (UniProt Q15858).
Data set [2] deals with NaV1.4 (Rattus norvegicus) (UniProt P15390).
In data set [3] the target is NaV1.2 (Rattus norvegicus) (UniProt P04775).

Sequence of UniProt P15390 (P15390 whole entry): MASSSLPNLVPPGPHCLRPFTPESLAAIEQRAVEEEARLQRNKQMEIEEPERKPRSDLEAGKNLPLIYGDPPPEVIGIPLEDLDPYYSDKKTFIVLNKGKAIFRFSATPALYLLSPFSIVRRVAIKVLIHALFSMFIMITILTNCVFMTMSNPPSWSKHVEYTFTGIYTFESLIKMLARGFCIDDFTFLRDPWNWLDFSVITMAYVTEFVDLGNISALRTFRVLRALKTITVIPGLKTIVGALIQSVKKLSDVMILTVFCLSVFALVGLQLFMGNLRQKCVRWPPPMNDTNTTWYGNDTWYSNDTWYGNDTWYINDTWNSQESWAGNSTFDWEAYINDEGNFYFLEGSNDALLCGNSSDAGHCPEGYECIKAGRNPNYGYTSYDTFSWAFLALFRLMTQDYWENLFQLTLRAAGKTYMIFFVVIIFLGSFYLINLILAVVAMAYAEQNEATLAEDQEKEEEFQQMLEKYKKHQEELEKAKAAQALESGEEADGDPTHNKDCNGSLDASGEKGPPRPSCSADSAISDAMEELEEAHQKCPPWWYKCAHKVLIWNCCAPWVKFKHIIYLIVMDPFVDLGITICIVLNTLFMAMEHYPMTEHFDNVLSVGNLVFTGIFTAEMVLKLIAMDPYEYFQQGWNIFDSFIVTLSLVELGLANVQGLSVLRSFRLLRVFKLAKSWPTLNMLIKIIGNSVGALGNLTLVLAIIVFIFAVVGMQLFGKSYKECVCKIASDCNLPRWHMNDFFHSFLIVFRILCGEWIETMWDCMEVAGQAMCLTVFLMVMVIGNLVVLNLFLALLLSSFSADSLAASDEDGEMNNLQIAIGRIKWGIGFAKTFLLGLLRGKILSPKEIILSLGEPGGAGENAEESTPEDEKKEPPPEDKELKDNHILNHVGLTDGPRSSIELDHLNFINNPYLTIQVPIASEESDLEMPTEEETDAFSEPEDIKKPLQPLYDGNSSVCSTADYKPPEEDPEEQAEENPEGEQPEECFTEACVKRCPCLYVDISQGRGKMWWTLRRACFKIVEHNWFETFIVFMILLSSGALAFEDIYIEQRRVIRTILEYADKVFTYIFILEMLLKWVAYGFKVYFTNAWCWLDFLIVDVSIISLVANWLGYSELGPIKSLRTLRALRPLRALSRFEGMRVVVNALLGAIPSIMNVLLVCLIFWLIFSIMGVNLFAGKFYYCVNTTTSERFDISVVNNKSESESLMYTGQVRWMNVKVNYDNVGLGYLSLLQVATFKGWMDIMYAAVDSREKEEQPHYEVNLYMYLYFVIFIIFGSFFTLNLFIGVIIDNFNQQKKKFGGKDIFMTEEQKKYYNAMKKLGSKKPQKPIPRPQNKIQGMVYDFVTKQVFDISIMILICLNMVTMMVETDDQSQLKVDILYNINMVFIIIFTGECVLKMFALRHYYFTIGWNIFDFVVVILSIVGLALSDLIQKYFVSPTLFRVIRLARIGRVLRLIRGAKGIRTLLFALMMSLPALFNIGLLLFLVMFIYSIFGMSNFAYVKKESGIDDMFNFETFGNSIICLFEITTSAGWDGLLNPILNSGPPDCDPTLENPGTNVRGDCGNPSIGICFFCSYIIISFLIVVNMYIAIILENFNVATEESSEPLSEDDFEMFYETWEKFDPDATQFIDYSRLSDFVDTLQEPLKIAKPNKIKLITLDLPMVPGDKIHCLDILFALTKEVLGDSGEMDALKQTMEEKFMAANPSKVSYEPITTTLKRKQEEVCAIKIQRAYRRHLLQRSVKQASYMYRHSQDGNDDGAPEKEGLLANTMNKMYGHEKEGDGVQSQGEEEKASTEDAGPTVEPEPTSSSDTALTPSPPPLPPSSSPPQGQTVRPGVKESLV
Sequence of UniProt Q15858 (Q15858 whole entry): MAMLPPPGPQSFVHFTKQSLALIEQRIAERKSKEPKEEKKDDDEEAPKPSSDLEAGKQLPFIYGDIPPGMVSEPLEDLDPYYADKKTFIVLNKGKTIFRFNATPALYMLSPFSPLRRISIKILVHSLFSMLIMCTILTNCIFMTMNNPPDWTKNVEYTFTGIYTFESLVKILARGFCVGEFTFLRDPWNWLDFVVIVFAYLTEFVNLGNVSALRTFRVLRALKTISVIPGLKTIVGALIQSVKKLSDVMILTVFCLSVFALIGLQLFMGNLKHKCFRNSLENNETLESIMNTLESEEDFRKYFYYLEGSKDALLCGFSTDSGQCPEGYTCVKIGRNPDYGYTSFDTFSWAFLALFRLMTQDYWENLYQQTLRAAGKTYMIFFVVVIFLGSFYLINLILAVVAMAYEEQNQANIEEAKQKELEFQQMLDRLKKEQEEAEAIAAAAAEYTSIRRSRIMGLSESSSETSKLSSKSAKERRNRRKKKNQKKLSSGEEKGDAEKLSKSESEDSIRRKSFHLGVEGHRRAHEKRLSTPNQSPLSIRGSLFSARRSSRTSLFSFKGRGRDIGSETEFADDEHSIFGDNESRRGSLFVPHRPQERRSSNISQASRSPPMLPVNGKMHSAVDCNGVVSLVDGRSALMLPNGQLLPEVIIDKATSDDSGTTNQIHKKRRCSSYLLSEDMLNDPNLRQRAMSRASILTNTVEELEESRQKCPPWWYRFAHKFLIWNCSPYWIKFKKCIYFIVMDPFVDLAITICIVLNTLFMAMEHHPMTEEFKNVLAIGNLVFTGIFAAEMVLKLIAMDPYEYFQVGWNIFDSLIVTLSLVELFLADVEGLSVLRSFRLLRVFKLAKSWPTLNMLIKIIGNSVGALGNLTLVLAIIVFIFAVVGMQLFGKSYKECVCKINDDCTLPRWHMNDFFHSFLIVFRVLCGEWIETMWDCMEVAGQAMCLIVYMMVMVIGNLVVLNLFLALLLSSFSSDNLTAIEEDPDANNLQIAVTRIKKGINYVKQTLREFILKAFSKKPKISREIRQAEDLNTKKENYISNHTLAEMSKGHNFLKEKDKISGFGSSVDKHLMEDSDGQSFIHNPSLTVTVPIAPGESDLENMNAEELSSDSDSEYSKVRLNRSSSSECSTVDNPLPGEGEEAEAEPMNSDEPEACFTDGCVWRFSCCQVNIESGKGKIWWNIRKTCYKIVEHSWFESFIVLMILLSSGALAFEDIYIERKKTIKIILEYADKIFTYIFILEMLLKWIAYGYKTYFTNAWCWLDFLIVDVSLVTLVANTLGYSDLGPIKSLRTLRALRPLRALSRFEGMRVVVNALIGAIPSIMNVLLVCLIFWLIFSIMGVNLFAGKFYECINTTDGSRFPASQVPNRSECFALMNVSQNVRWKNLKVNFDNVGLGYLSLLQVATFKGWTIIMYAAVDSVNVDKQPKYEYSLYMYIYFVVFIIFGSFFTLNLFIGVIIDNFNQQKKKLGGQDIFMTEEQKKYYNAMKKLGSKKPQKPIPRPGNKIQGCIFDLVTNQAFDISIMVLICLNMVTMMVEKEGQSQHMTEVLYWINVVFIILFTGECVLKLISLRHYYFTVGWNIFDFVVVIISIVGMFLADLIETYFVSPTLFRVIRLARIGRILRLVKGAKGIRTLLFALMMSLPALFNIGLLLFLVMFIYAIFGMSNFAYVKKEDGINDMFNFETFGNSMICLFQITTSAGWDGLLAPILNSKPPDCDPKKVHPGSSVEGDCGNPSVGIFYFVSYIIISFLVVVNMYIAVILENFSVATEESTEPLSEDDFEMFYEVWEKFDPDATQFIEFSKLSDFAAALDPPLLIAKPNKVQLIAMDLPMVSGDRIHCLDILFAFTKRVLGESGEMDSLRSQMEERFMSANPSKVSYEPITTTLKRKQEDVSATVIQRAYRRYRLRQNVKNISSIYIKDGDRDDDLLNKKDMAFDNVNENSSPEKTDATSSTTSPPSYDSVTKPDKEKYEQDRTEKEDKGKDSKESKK

Turning to “mu-conotoxin KIIIA (from UniProt P0C195)”, the Kd is 97 nM in data set [1], 37 nM in data set [2] and 5 nM in data set [3].

As usually defined, the Kd is a measure of binding affinity in units of concentration.
